The record followed here is paper PMC11602160, “Modulation of UPF1 catalytic activity upon interaction of SARS-CoV-2 Nucleocapsid protein with factors involved in nonsense mediated-mRNA decay” (Nucleic Acids Research, 2024).

This assay has as its target T1, full-length GST-tagged SARS-CoV-2 Nucleocapsid (N) protein (SARS-CoV-2, UniProt P0DTC9 1-419).
T1 construct: SARS-CoV-2 Nucleocapsid (N) protein, full length; also called GST-N
Put plainly: pull-down. The settings on record: both partners purified.

B1: UPF2 truncated construct lacking 120 and 45 residues at the N- and C-termini (domain or fragment, human, UniProt Q9HAU5 121-1227, looked up)
chain: MKEKEESIQLHQEAWERHHLRKELRSKNQNAPDSRPEENFFSRLDSSLKKNTAFVKKLKTITEQQRDSLSHDFNGLNLSKYIAEAVASIVEAKLKISDVNCAVHLCSLFHQRYADFAPSLLQVWKKHFEARKEEKTPNITKLRTDLRFIAELTIVGIFTDKEGLSLIYEQLKNIINADRESHTHVSVVISFCRHCGDDIAGLVPRKVKSAAEKFNLSFPPSEIISPEKQQPFQNLLKEYFTSLTKHLKRDHRELQNTERQNRRILHSKGELSEDRHKQYEEFAMSYQKLLANSQSLADLLDENMPDLPQDKPTPEEHGPGIDIFTPGKPGEYDLEGGIWEDEDARNFYENLIDLKAFVPAILFKDNEKSCQNKESNKDDTKEAKESKENKEVSSPDDLELELENLEINDDTLELEGGDEAEDLTKKLLDEQEQEDEEASTGSHLKLIVDAFLQQLPNCVNRDLIDKAAMDFCMNMNTKANRKKLVRALFIVPRQRLDLLPFYARLVATLHPCMSDVAEDLCSMLRGDFRFHVRKKDQINIETKNKTVRFIGELTKFKMFTKNDTLHCLKMLLSDFSHHHIEMACTLLETCGRFLFRSPESHLRTSVLLEQMMRKKQAMHLDARYVTMVENAYYYCNPPPAEKTVKKKRPPLQEYVRKLLYKDLSKVTTEKVLRQMRKLPWQDQEVKDYVICCMINIWNVKYNSIHCVANLLAGLVLYQEDVGIHVVDGVLEDIRLGMEVNQPKFNQRRISSAKFLGELYNYRMVESAVIFRTLYSFTSFGVNPDGSPSSLDPPEHLFRIRLVCTILDTCGQYFDRGSSKRKLDCFLVYFQRYVWWKKSLEVWTKDHPFPIDIDYMISDTLELLRPKIKLCNSLEESIRQVQDLEREFLIKLGLVNDKDSKDSMTEGENLEEDEEEEEGGAETEEQSGNESEVNEPEEEEGSDNDDDEGEEEEEENTDYLTDSNKENETDEENTEVMIKGGGLKHVPCVEDEDFIQALDKMMLENLQQRSGESVKVHQLDVAIPLHLKSQLRKGPPLGGGEGEAESADTMPFVMLTRKGNKQQFKILNVPMSSQLAANHWNQQQAEQEERMRMKKLTLDINERQEQED
notes: human UPF2 lacking 120 residues at the N-terminus and 45 residues at the C-terminus
Regarding B1, the binding result is “binds”.
